# Data published in the supplement of paper PMC10567573.
# B1: TRIM15 (parent)
# chain: LSQMGAQSSGKILLCPLCQEEEQA
# Variants of: B1
# Assay: protein stability index of a GFP-peptide fusion (GPS, HEK-293T) (PSI 1-6); higher = more stable
# Details: c terminus: a fixed tail appended
# 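Note: lentivirally expressed fusions sorted by FACS into six bins by GFP to DsRed ratio, PSI derived from sequencing read proportions per bin multiplied by bin number.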
row,Variant,protein stability index
1,LYQMGAQSSGKILLCPLCQEEEQA [S2Y],3.63
2,LSCMGAQSSGKILLCPLCQEEEQA [Q3C],3.18
3,LSDMGAQSSGKILLCPLCQEEEQA [Q3D],3.97
4,LSEMGAQSSGKILLCPLCQEEEQA [Q3E],3.68
5,LSFMGAQSSGKILLCPLCQEEEQA [Q3F],2.9
6,LSHMGAQSSGKILLCPLCQEEEQA [Q3H],3.95
7,LSIMGAQSSGKILLCPLCQEEEQA [Q3I],3.11
8,LSKMGAQSSGKILLCPLCQEEEQA [Q3K],4.1
9,LSMMGAQSSGKILLCPLCQEEEQA [Q3M],2.96
10,LSNMGAQSSGKILLCPLCQEEEQA [Q3N],3.55
11,LSPMGAQSSGKILLCPLCQEEEQA [Q3P],4.9
12,LSRMGAQSSGKILLCPLCQEEEQA [Q3R],3.23
13,LSTMGAQSSGKILLCPLCQEEEQA [Q3T],3.58
14,LSVMGAQSSGKILLCPLCQEEEQA [Q3V],2.81
15,LSWMGAQSSGKILLCPLCQEEEQA [Q3W],2.23
16,LSYMGAQSSGKILLCPLCQEEEQA [Q3Y],3.24
17,LSQAGAQSSGKILLCPLCQEEEQA [M4A],4.66
18,LSQCGAQSSGKILLCPLCQEEEQA [M4C],4.13
19,LSQEGAQSSGKILLCPLCQEEEQA [M4E],3.94
20,LSQFGAQSSGKILLCPLCQEEEQA [M4F],3.26
21,LSQGGAQSSGKILLCPLCQEEEQA [M4G],3.2
22,LSQIGAQSSGKILLCPLCQEEEQA [M4I],3.82
23,LSQLGAQSSGKILLCPLCQEEEQA [M4L],4.22
24,LSQNGAQSSGKILLCPLCQEEEQA [M4N],3.6

row,Variant,protein stability index
1,LSQPGAQSSGKILLCPLCQEEEQA [M4P],4.94
2,LSQRGAQSSGKILLCPLCQEEEQA [M4R],3.92
3,LSQSGAQSSGKILLCPLCQEEEQA [M4S],4.08
4,LSQVGAQSSGKILLCPLCQEEEQA [M4V],2.81
5,LSQYGAQSSGKILLCPLCQEEEQA [M4Y],3.76
6,LSQMAAQSSGKILLCPLCQEEEQA [G5A],3.49
7,LSQMCAQSSGKILLCPLCQEEEQA [G5C],3.92
8,LSQMDAQSSGKILLCPLCQEEEQA [G5D],3.49
9,LSQMFAQSSGKILLCPLCQEEEQA [G5F],3.22
10,LSQMHAQSSGKILLCPLCQEEEQA [G5H],3.14
11,LSQMIAQSSGKILLCPLCQEEEQA [G5I],2.98
12,LSQMKAQSSGKILLCPLCQEEEQA [G5K],3.87
13,LSQMLAQSSGKILLCPLCQEEEQA [G5L],3.27
14,LSQMMAQSSGKILLCPLCQEEEQA [G5M],2.95
15,LSQMNAQSSGKILLCPLCQEEEQA [G5N],3.39
16,LSQMPAQSSGKILLCPLCQEEEQA [G5P],2.76
17,LSQMQAQSSGKILLCPLCQEEEQA [G5Q],3.92
18,LSQMRAQSSGKILLCPLCQEEEQA [G5R],3.32
19,LSQMSAQSSGKILLCPLCQEEEQA [G5S],3.05
20,LSQMTAQSSGKILLCPLCQEEEQA [G5T],3.7
21,LSQMVAQSSGKILLCPLCQEEEQA [G5V],3.13
22,LSQMYAQSSGKILLCPLCQEEEQA [G5Y],2.9
23,LSQMGCQSSGKILLCPLCQEEEQA [A6C],3.37
24,LSQMGDQSSGKILLCPLCQEEEQA [A6D],3.75

row,Variant,protein stability index
1,LSQMGEQSSGKILLCPLCQEEEQA [A6E],3.56
2,LSQMGFQSSGKILLCPLCQEEEQA [A6F],2.6
3,LSQMGGQSSGKILLCPLCQEEEQA [A6G],3.47
4,LSQMGHQSSGKILLCPLCQEEEQA [A6H],4.33
5,LSQMGIQSSGKILLCPLCQEEEQA [A6I],3.93
6,LSQMGKQSSGKILLCPLCQEEEQA [A6K],4.68
7,LSQMGMQSSGKILLCPLCQEEEQA [A6M],3.3
8,LSQMGNQSSGKILLCPLCQEEEQA [A6N],3.12
9,LSQMGPQSSGKILLCPLCQEEEQA [A6P],3.8
10,LSQMGRQSSGKILLCPLCQEEEQA [A6R],3.17
11,LSQMGSQSSGKILLCPLCQEEEQA [A6S],4.02
12,LSQMGTQSSGKILLCPLCQEEEQA [A6T],3.27
13,LSQMGVQSSGKILLCPLCQEEEQA [A6V],3.81
14,LSQMGWQSSGKILLCPLCQEEEQA [A6W],3.94
15,LSQMGYQSSGKILLCPLCQEEEQA [A6Y],3.29
16,LSQMGAASSGKILLCPLCQEEEQA [Q7A],4.11
17,LSQMGACSSGKILLCPLCQEEEQA [Q7C],3.71
18,LSQMGADSSGKILLCPLCQEEEQA [Q7D],3.88
19,LSQMGAESSGKILLCPLCQEEEQA [Q7E],3.52
20,LSQMGAFSSGKILLCPLCQEEEQA [Q7F],2.88
21,LSQMGAGSSGKILLCPLCQEEEQA [Q7G],3.58
22,LSQMGAHSSGKILLCPLCQEEEQA [Q7H],4.53
23,LSQMGAISSGKILLCPLCQEEEQA [Q7I],2.74
24,LSQMGAKSSGKILLCPLCQEEEQA [Q7K],3.47

row,Variant,protein stability index
1,LSQMGALSSGKILLCPLCQEEEQA [Q7L],2.8
2,LSQMGAMSSGKILLCPLCQEEEQA [Q7M],2.99
3,LSQMGANSSGKILLCPLCQEEEQA [Q7N],4.07
4,LSQMGAPSSGKILLCPLCQEEEQA [Q7P],3.15
5,LSQMGARSSGKILLCPLCQEEEQA [Q7R],3.5
6,LSQMGASSSGKILLCPLCQEEEQA [Q7S],3.77
7,LSQMGATSSGKILLCPLCQEEEQA [Q7T],3.99
8,LSQMGAVSSGKILLCPLCQEEEQA [Q7V],2.76
9,LSQMGAWSSGKILLCPLCQEEEQA [Q7W],3.84
10,LSQMGAYSSGKILLCPLCQEEEQA [Q7Y],3.24
11,LSQMGAQASGKILLCPLCQEEEQA [S8A],4.01
12,LSQMGAQCSGKILLCPLCQEEEQA [S8C],2.89
13,LSQMGAQDSGKILLCPLCQEEEQA [S8D],3.98
14,LSQMGAQESGKILLCPLCQEEEQA [S8E],3.82
15,LSQMGAQFSGKILLCPLCQEEEQA [S8F],2.76
16,LSQMGAQGSGKILLCPLCQEEEQA [S8G],3.93
17,LSQMGAQHSGKILLCPLCQEEEQA [S8H],3.82
18,LSQMGAQISGKILLCPLCQEEEQA [S8I],3.14
19,LSQMGAQKSGKILLCPLCQEEEQA [S8K],3.4
20,LSQMGAQNSGKILLCPLCQEEEQA [S8N],3.82
21,LSQMGAQPSGKILLCPLCQEEEQA [S8P],3.73
22,LSQMGAQQSGKILLCPLCQEEEQA [S8Q],3.27
